The values below come from patent publication US20180155451A1 (published 2018).

The chains are these.
T1: FcγRIIb (human, UniProt P31994 43-217)
T1 construct: extracellular domain; for crystallography expressed with Kifunesine and trimmed with Endo F1; also called FcgRIIb; FcgR2b; not shown: His tag attached to the C terminus
T1 sequence (looked up): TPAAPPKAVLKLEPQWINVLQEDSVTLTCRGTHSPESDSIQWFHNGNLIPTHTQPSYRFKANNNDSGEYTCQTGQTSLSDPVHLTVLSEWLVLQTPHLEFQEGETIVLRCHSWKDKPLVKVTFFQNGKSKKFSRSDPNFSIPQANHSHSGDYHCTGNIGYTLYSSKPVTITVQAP

T2: FcγRIIa H (FcγRIIa, allotype with His at position 131), extracellular domain with C-terminal His tag (human, UniProt P12318 34-217)
T2 construct: extracellular domain; Soluble receptor expressed in FreeStyle293 cells and used as the analyte in Biacore; also called FcgRIIa H; FcγRIIa type H; not shown: His tag attached to the C terminus
T2 sequence (looked up): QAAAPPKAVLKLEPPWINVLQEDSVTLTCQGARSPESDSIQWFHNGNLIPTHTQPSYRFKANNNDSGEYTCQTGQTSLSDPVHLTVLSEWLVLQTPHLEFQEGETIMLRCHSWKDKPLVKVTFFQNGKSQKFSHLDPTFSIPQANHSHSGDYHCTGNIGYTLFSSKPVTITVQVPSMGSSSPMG

B1: GpH7-A5/GpH7-B3/GpL16-k0 (antibody, human IgG1, kappa)
heavy 1: not shown
heavy 2: not shown
light: DIVMTQSPLSLPVTPGEPASISCQASESLVHSNRNTYLHWYLQKPGQSPQLLIYKVSNRFSGVPDRFSGSGSGTDFTLKISRVEAEDVGVYYCSQNTHVPPTFGQGTKVEIERTVAAPSVFIFPPSDEQLKSGTASVVCLLNNFYPREAKVQWKVDNALQSGNSQESVTEQDSKDSTYSLSSTLTLSKADYEKHKVYACEVTHQGLSSPVTKSFNRGEC
notes: also called HeCon Ab; control heterodimerized antibody
B2: GpH7-A44/GpH7-B3/GpL16-k0 (antibody, human IgG1, kappa)
heavy 1: QVQLVQSGAEVKKPGASVTVSCKASGYTFTDYEMHWIRQPPGEGLEWIGAIDPKTGDTAYSESFQDRVTLTADKSTSTAYMELSSLTSEDTAVYYCTRFYSYTYWGQGTLVTVSSASTKGPSVFPLAPSSKSTSGGTAALGCLVKDYFPEPVTVSWNSGALTSGVHTFPAVLQSSGLYSLSSVVTVPSSSLGTQTYICNVNHKPSNTKVDKKVEPKSCDKTHTCPPCPAPELLGGPSVFLFPPKPKDTLMISRTPEVTCVVVDVSHEDPEVKFNWYVDGVEVHNAKTKPREEQYNSTYRVVSVLTVLHQDWLNGKEYKCKVSNKALPAPEEKTISKAKGQPREPQVYTLPPSRKELTKNQVSLTCLVKGFYPSDIAVEWESNGQPENNYKTTPPVLDSDGSFFLYSKLTVDKSRWQQGNVFSCSVMHEALHNRYTQKSLSLSP
heavy 2: not shown
light: B1 light
notes: Heterodimerized anti-glypican-3 IgG1; I332E only in the GpH7-A5-derived chain (A44)
B3: GpH7-A5/GpH7-B80/GpL16-k0 (antibody, human IgG1, kappa)
heavy 1: not shown
heavy 2: not shown
light: B1 light
notes: Heterodimerized anti-glypican-3 IgG1
B4: GpH7-A44/GpH7-B80/GpL16-k0 (antibody, human IgG1, kappa)
heavy 1: B2 heavy 1
heavy 2: not shown
light: B1 light
notes: Anti-glypican-3 IgG1 with I332E in both H chains
B5: GpH7-A26/GpH7-B3/GpL16-k0 (antibody, human IgG1, kappa)
heavy 1: B2 heavy 1 with G235A, E330I
heavy 2: not shown
light: B1 light
notes: G237A in one H chain
B6: GpH7-A26/GpL16-k0 (antibody, human IgG1, kappa)
heavy: B2 heavy 1 with G235A, E330I
light: B1 light
notes: G237A in both H chains
B7: GpH7-A42/GpL16-k0 (antibody, human IgG1, kappa)
heavy: B2 heavy 1 with L326E, E330I
light: B1 light
notes: L328E in both H chains
B8: GpH7-A42/GpH7-B3/GpL16-k0 (antibody, human IgG1, kappa)
heavy 1: B2 heavy 1 with L326E, E330I
heavy 2: not shown
light: B1 light
notes: L328E in one H chain
B9: GpH7-A43/GpH7-B3/GpL16-k0 (antibody, human IgG1, kappa)
heavy 1: B2 heavy 1 with L326D, E330I
heavy 2: not shown
light: B1 light
notes: L328D in one H chain
B10: GpH7-A43/GpL16-k0 (antibody, human IgG1, kappa)
heavy: B2 heavy 1 with L326D, E330I
light: B1 light
notes: L328D in both H chains
B11: GpH7-A29/GpH7-B3/GpL16-k0 (antibody, human IgG1, kappa)
heavy 1: B2 heavy 1 with G235L, E330I
heavy 2: not shown
light: B1 light
notes: G237L in one H chain
B12: GpH7-A29/GpL16-k0 (antibody, human IgG1, kappa)
heavy: B2 heavy 1 with G235L, E330I
light: B1 light
notes: G237L in both H chains
B13: GpH7-A5/GpH7-B3 variant T335_02A/GpL16-k0 (heterodimerized antibody, He Ab) (antibody, human IgG1, kappa)
heavy 1: not shown
heavy 2: not shown
light: B1 light
notes: Anti-glypican-3 IgG1; the substitution stands only in the GpH7-B3 chain, the other H chain is GpH7-A5 (D356K/H435R); Position is EU numbering; also called He Ab T335A
B14: GpH7-A5/GpH7-B3 variant T335_09D/GpL16-k0 (heterodimerized antibody, He Ab) (antibody, human IgG1, kappa)
heavy 1: not shown
heavy 2: not shown
light: B1 light
notes: Anti-glypican-3 IgG1; substitution only in the GpH7-B3 chain; Position is EU numbering; also called He Ab T335D
B15: GpH7-A5/GpH7-B3 variant T335_04F/GpL16-k0 (heterodimerized antibody, He Ab) (antibody, human IgG1, kappa)
heavy 1: not shown
heavy 2: not shown
light: B1 light
notes: Anti-glypican-3 IgG1; substitution only in the GpH7-B3 chain; Position is EU numbering; also called He Ab T335F
B16: GpH7-A5/GpH7-B3 variant Y300_06M/GpL16-k0 (heterodimerized antibody, He Ab) (antibody, human IgG1, kappa)
heavy 1: not shown
heavy 2: not shown
light: B1 light
notes: Anti-glypican-3 IgG1; substitution only in the GpH7-B3 chain; Position is EU numbering; also called He Ab Y300M
B17: GpH7-A5/GpH7-B3 variant T335_06M/GpL16-k0 (heterodimerized antibody, He Ab) (antibody, human IgG1, kappa)
heavy 1: not shown
heavy 2: not shown
light: B1 light
notes: Anti-glypican-3 IgG1; substitution only in the GpH7-B3 chain; Position is EU numbering; also called He Ab T335M
B18: GpH7-A5/GpH7-B3 variant Y300_08L/GpL16-k0 (heterodimerized antibody, He Ab) (antibody, human IgG1, kappa)
heavy 1: not shown
heavy 2: not shown
light: B1 light
notes: Anti-glypican-3 IgG1; substitution only in the GpH7-B3 chain; Position is EU numbering; also called He Ab Y300L
B19: GpH7-A5/GpH7-B3 variant T335_08L/GpL16-k0 (heterodimerized antibody, He Ab) (antibody, human IgG1, kappa)
heavy 1: not shown
heavy 2: not shown
light: B1 light
notes: Anti-glypican-3 IgG1; substitution only in the GpH7-B3 chain; Position is EU numbering; also called He Ab T335L
B20: GpH7-A5/GpH7-B3 variant T335_05P/GpL16-k0 (heterodimerized antibody, He Ab) (antibody, human IgG1, kappa)
heavy 1: not shown
heavy 2: not shown
light: B1 light
notes: Anti-glypican-3 IgG1; substitution only in the GpH7-B3 chain; Position is EU numbering; also called He Ab T335P
B21: GpH7-A5/GpH7-B3 variant Y300_07I/GpL16-k0 (heterodimerized antibody, He Ab) (antibody, human IgG1, kappa)
heavy 1: not shown
heavy 2: not shown
light: B1 light
notes: Anti-glypican-3 IgG1; substitution only in the GpH7-B3 chain; Position is EU numbering; also called He Ab Y300I

Substitutions are numbered along the chain they refer to. Names and notes keep the numbering of the source.

The first assay deals with T3, FcγRIIIa extracellular domain with C-terminal His tag (human, UniProt P08637 17-208).
T3 construct: extracellular domain; also called FcgRIIIa; 3a; not shown: His tag at the C terminus
T3 sequence (P08637 17-208): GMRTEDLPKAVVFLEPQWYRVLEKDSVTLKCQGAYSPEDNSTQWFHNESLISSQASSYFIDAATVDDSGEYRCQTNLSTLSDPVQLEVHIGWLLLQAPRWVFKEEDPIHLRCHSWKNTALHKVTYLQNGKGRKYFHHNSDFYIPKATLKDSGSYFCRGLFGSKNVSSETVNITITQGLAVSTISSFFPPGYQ
The experiment in a line: SPR (Biacore), kinetic analysis, antibody captured, FcγRIIIa as analyte. The source says: Then, the present inventors introduced I332E into only one H chain, and assessed whether the Tm is elevated as compared to when I332E is introduced into both H chains. Expression vectors inserted with GpH7-A44 (SEQ ID NO: 49) and GpH7-B80 (SEQ ID NO: 50) resulting from the introduction of I332E into GpH7-A5 and GpH7-B3, respectively, were constructed. They were combined with GpH7-B3, GpH7-A5, and GpL16-k0 to express and prepare the following antibodies according to the method described in Reference Example 1: the heterodimerized antibodies GpH7-A5/GpH7-B80/GpL16-k0 and GpH7-A44/GpH7-B3/GpL16-k0 in which only one of the H chains was introduced with I332E, and the homodimerized antibody GpH7-A44/GpH7-B80/GpL16-k0 in which both of the H chains were introduced with I332E. GpH7-A5/GpH7-B3/GpL16-k0 was prepared as a control. Each antibody was assessed for the FcγRIIIa-binding activity according to the method described in Reference Example 2. In addition, the antibodies were compared for the Tm of CH2 domain by thermal shift assay according to the method described in Reference Example 5 (Tables 28 and 29).
(§1) Analysis of interaction between objective antibody and the FcγR was carried out using Biacore T100 (GE Healthcare). HBS-EP+ (GE Healthcare) was used as the running buffer, and the measurement temperature was set to 25° C. Chips produced by immobilizing the antigen peptide by the amine coupling method to a Series S Sencor Chip CM5 (GE Healthcare), or alternatively, chips produced by allowing preliminarily biotinylated antigen peptides to interact with and immobilize onto a Series S Sensor Chip SA (certified) (GE Healthcare) were used. Antibodies of interest were captured onto an antigen peptide-immobilized chip, and allowed to interact to each FcγR diluted with running buffer. To regenerate and repeatedly use the chip, the antibodies captured on the chip were washed off by reacting 10 mM glycine-HCl, pH 1.5.
The FcγR-binding activity of each antibody was assessed primarily using as an indicator the FcγR-binding activity and dissociation constant for FcγR.
On the technique in general: Surface plasmon resonance follows binding to a sensor surface in real time, without labels.
Take B1: the KD ratio was 1 fold (KD of GpH7-A5/GpH7-B3/GpL16-k0 divided by KD of the antibody) and binding was put at a Kd of 1600 nM.

Regarding B2, the KD ratio was 4.4 fold (KD of GpH7-A5/GpH7-B3/GpL16-k0 divided by KD of the antibody) and binding was put at a Kd of 370 nM.

As to B3, the KD ratio is 3.4 fold (KD of GpH7-A5/GpH7-B3/GpL16-k0 divided by KD of the antibody) and binding was characterised by a dissociation constant (Kd) of 470 nM.

Consider B4, for which the KD ratio is 7.1 fold (KD of GpH7-A5/GpH7-B3/GpL16-k0 divided by KD of the antibody) and the equilibrium dissociation constant (Kd) is 230 nM.

In a further assay the target is T1, FcγRIIb. The experiment in a line: SPR (Biacore), relative binding.
Text: The constructed expression vectors were each combined with GpH7-A5 and GpL16-k0 to express heterodimerized antibodies, or they were combined with GpL16-k0 alone but not with other H chains to express homodimerized antibodies. These antibodies were expressed and purified according to the method described in Reference Example 1. The resulting purified antibodies are the following: the heterodimerized antibodies GpH7-A5/GpH7-B12/GpL16-k0, GpH7-A5/GpH7-B13/GpL16-k0, GpH7-A5/GpH7-B14/GpL16-k0, and GpH7-A5/GpH7-B15/GpL16-k0; and homodimerized antibodies GpH7-B12/GpL16-k0, GpH7-B13/GpL16-k0, GpH7-B14/GpL16-k0, and GpH7-B15/GpL16-k0. The prepared antibodies were used to assess the binding activity to each FcγR by the method described in Reference Example 2.
as §1
B5: the binding result was “binds”.

On to B6, for which the binding result is listed as “binds”.

As to B7, the binding result is on record as “binds”.

Regarding B8, the binding result is on record as “binds”.

As to B9, the binding result is “binds”.

As for B10, the binding result was “binds”.

On to B11, for which the binding result is recorded as “binds”.

Turning to B12, the binding result was “binds”.

The target of the next assay is T2, FcγRIIa H (FcγRIIa, allotype with His …). The experiment in a line: SPR (Biacore T100), antibody captured on antigen-peptide chip, FcγRIIa H as analyte; response per captured antibody relative to GpH7-A5/GpH7-B3/GpL16-k0. How it is done: as §1
On to B13, for which the He/Con_2aH is 101 relative binding activity (control heterodimerized antibody GpH7-A5/GpH7-B3/GpL16-k0 = 100).

On to B14, for which the He/Con_2aH was 107 relative binding activity (control heterodimerized antibody GpH7-A5/GpH7-B3/GpL16-k0 = 100).

B15: the He/Con_2aH is 103 relative binding activity (control heterodimerized antibody GpH7-A5/GpH7-B3/GpL16-k0 = 100).

As for B16, the He/Con_2aH was 105 relative binding activity (control heterodimerized antibody GpH7-A5/GpH7-B3/GpL16-k0 = 100).

Take B17: the He/Con_2aH was 103 relative binding activity (control heterodimerized antibody GpH7-A5/GpH7-B3/GpL16-k0 = 100).

Take B18: the He/Con_2aH is 108 relative binding activity (control heterodimerized antibody GpH7-A5/GpH7-B3/GpL16-k0 = 100).

In the case of B19, the He/Con_2aH is 106 relative binding activity (control heterodimerized antibody GpH7-A5/GpH7-B3/GpL16-k0 = 100).

For the molecule B20, the He/Con_2aH was 108 relative binding activity (control heterodimerized antibody GpH7-A5/GpH7-B3/GpL16-k0 = 100).

Regarding B21, the He/Con_2aH is 108 relative binding activity (control heterodimerized antibody GpH7-A5/GpH7-B3/GpL16-k0 = 100).

For orientation: Kd means the equilibrium constant for the complex coming apart. Higher therefore signals lower affinity.
